Laboratory results as given in US8513197B2, “Ganglioside epitopes for treating Guillain-Barre syndrome” (Georgia Regents University, priority 2009, dated 2013).
Like-named read-outs stand apart in the source and are kept apart here. One block for each substance: values may come before it. No end group written: not given here.

Key:
mAb R24 = assay: Competitive inhibition ELISA: binding of mAb R24 to GD3-coated plate
Procedure: Subsequently, an aliquot (100 μl) was added to each well, and each well of the ELISA plate was coated with 0.1 μg GD3. The remaining binding activity of mAb R24 was determined by ELISA. Values are means±SD, n=6 individual experiments. […] The experiment at each dose was performed on three rats, and values are means±SD.
(§1) Antiganglioside antibody activity was evaluated for GM1, GM2, GD1a, GD1b, GT1b, GQ1b, GD3, and LOSGD3 by conventional ELISA method (Usuki et al., 2005. J Neurol Sci 232: 37-44). […] Before the ELISA plate assay, each well was treated with 1% BSA/PBS solution. […] After incubation, the reaction mixture was passed through a 0.22-μm syringe filter (Millipore Corp., Bedford, Mass.). Subsequently, 100 μl of the mixture was added to each well and incubated for 1 hr at room temperature. To each of the wells, a secondary antibody (horseradish peroxidase-conjugated anti-mouse IgG, 1:5,000 dilution in 1% BSA/PBS solution) was added and incubated for 1 hr at room temperature. Finally, the bound secondary antibody was visualized by addition of a color-generating reagent (OPD Peroxidase Substrate). The absorbance was measured at 492 nm with a microplate spectrophotometer (Bio-Rad, Hemel Hempstead, United Kingdom). The nomenclature of gangliosides is based on that of Svennerholm (Svennerholm, 1964. J Lipid Res 5: 145-155).
FIG. 8 illustrates the effect of GD3-like peptides on binding of R24 mAb to GD3 by ELISA. Each of the GD3-peptide mimics in solution (PGD3-1, PGD3-2, PGD3-3, PGD3-4, PGD3-5, or PGD3-6) was incubated with R24 mAb for 30 min at room temperature at various concentrations as indicated in the horizontal axis. An aliquot of the mixtures (100 μL), was added to each well of an ELISA plate coated with 0.1 μg of GD3. The remaining binding activity of R24 mAb was measured by ELISA. Values are mean±SEM, n=6 individual experiments.
(§2) Anti-ganglioside antibody activity was evaluated for GM1, GM2, GD1a, GD1b, GT1b, GQ1b, GD3, and LOSGD3 by conventional ELISA as previously described (Usuki et al., 2005. J. Neurol. Sci. 232:37-44). To measure half-maximal inhibitory concentrations (IC50s) of GD3-like peptides for binding of GD3 to mAb R24, each well of the ELISA plate (Immunlon 1B, Lab System, Franklin, Mass., USA) was coated with 0.1 μg of GD3, and prior to ELISA assay was treated by 1% BSA/PBS solution. The purified mAb R24 IgG (10 μg/mL by 1% BSA/PBS solution) was incubated with various concentrations of GD3-like peptides (PGD3-1, PGD3-2, PGD3-3, PGD3-4, PGD3-5, and PGD3-6) for 30 min. After incubation, the reaction mixture was passed through a 0.22-μm syringe filter (Millipore Corp., Bedford, Mass., USA), and 100 μL of the mixture was added to each well and incubated for 1 h at room temperature. A secondary antibody (horseradish peroxidase-conjugated anti-mouse IgG, 1:5000 dilution in 1% BSA/PBS solution) was applied, incubated for 1 h at room temperature, and visualized by addition of a color-generating reagent (OPD Peroxidase Substrate). The absorbance was measured at 492 nm with a microplate spectrophotometer (BioRad, Hemel Hempstead, UK).

[1] = system: anti-GD3 antibody and anti-LOSGD3 antibody; assay: Time course of serum anti-GD3 and anti-LOSGD3 antibody (ELISA) in immunized rats; format: in vivo, Lewis rats; conditions: peptide 1000 nmol/kg i.p. daily, from weeks 8, 11 and 14
Procedure: as §1
as §2, with “A secondary antibody (horseradish peroxidase-conjugated anti-mouse IgG, 1:5000 dilution in 1% BSA/PBS solution) was applied, incubated for 1 h at room temperature, and visualized by addition of a color-generating reagent (OPD Peroxidase Substrate).” left out

LOSGD3-sensitized rats [2] = assay: Rotarod motor test; conditions: LOSGD3/peptide group vs LOSGD3 treatment group, week 17
Procedure: Twelve-week-old female Lewis rats weighing 200-250 g were used. One hundred micrograms LOSGD3 was dissolved in 50 mM PBS buffer with a vehicle of 0.05 ml keyhole limpet hemocyanin (KLH; 2 mg/ml) and emulsified with an equal volume of complete Freund's adjuvant (CFA). Rats were given a single subcutaneous injection of 0.1 ml inoculum (or vehicle) into the shoulders and the footpads of the hind limbs. In addition, booster injections were administered similarly to injections in LOSGD3 (or vehicle)-treated animals at 2-week intervals with 100 μg LOSGD3 (or no additive) and 2 mg/ml KLH in PBS emulsified with an equal volume of incomplete Freund's adjuvant (ICFA) 6 weeks thereafter. Sixteen experimental animals were divided into four groups (n=4 each): 1) LOSGD3, 2) LOSGD3/BEC2, 3) vehicle, and 4) vehicle/BEC2. The remaining animals were included as the untreated control group (n=4). As shown in the third and fourth stepladders of FIG. 2, BEC2 (5 mg kg^−1) was administered to rats once per week from 8 to 15 weeks.
A rat was placed on a rotating roller (4 cm in diameter), and the time for which the rat remained on the roller was measured. The test included eight trials; each trial was performed at an interval of 10 min; four trials were performed. An additional four trials were conducted after 24 hr. When the rat could stay on the rotating rod at a constant speed of 5 rpm for a cumulative duration of at least 2 sec, the rotation speed was increased by 0.2 rpm/sec.
Twelve-week-old female Lewis rats, weighing 200-220 g each, were used. One hundred micrograms of LOSGD3 was dissolved in 50 mM PBS buffer as vehicle, and with 0.05 mL of keyhole limpet hemocyanin (2 mg/mL) emulsified with an equal volume of complete Freund's adjuvant. A single subcutaneous injection of 0.1 mL of inoculum (or vehicle) was made into the rats' shoulders and hind limb footpads. […]

[3] = Pharmacokinetic study of bPGD3-4 after i.p. single dose (streptavidin-coated ELISA of plasma); conditions: for tmax: normal Lewis rats
Procedure: Briefly, the plasma samples from the single-dose administration of bPGD3-4 were applied to the streptavidin-coated ELISA plates at serial double dilutions in 1% bovine serum albumin/phosphate buffered-saline (BSA/PBS) solution. […] After washing with 1% BSA/PBS buffer, each well was treated with an anti-mouse IgG horseradish peroxidase-conjugated antibody (Jackson ImmunoResearch Lab, West Grove, Pa., USA). This secondary antibody was pre-treated with rat IgG to eliminate contamination from any anti-rat IgG binding activity. Finally, the bound secondary antibody was visualized by a color-generating reagent (OPD Peroxidase Substrate in PBS; Sigma, St Louis, Mo., USA). Half-saturation absorbance values for plasma samples were estimated by serial plasma dilution curves of ELISA. The absorbances were then converted into values of plasma concentration using a standard serial dilution curve of rat serum containing authentic bPGD3-4.
A Micro-Renathane polyurethane cannula, 0.84 mm o.d.×0.36 mm i.d., (Braintree Scientific Inc., Braintree, Mass.) was inserted before dosing into the femoral vein of a female Lewis rat (n=9; body weight=200±20 g). […] Blood samples were centrifuged at room temperature and the plasma harvested. The plasma samples were stored at −60° C. to −80° C. until analyzed by a streptavidin-coated ELISA plate for determining the total concentration of bPGD3-4.
The following parameters were calculated: maximum-, minimum-, and average-observed plasma concentration (Cmax, Cmin, and Cav), areas under the plasma concentration-time curve from zero to infinite time (AUC) plasma clearance (CL), distribution half-life (t1/2α), and elimination half-life (t1/2β).

LOSGD3-sensitized rats [4] = assay: Nerve conduction velocity (NCV) in rat tail nerve; conditions: LOSGD3/peptide-treated groups, week 16
Procedure: Twelve-week-old female Lewis rats, weighing 200-220 g each, were used. One hundred micrograms of LOSGD3 was dissolved in 50 mM PBS buffer as vehicle, and with 0.05 mL of keyhole limpet hemocyanin (2 mg/mL) emulsified with an equal volume of complete Freund's adjuvant. A single subcutaneous injection of 0.1 mL of inoculum (or vehicle) was made into the rats' shoulders and hind limb footpads. Additional booster injections were administered similarly to LOSGD3- (or vehicle-) treated animals at 2-week intervals with 100 μg of LOSGD3 (or no additive) and 2 mg/mL of keyhole limpet hemocyanin in PBS emulsified with an equal volume of incomplete Freund's adjuvant after 6 weeks. Forty-four experimental animals were grouped into 10 treatment paradigms (n=4 each): (i) LOSGD3, (ii) LOSGD3/PGD3-3, (iii) LOSGD3/PGD3-4, (iv) LOSGD3/PGD3-5, (v) LOSGD3/PGD3-6, (vi) vehicle, (vii) vehicle/PGD3-3, (viii) vehicle/PGD3-4, (ix) vehicle/PGD3-5, and (x) LOSGD3/PGD3-6. The remaining four animals were the untreated control group (n=4). […]
NCVs (m/s) were measured in the rat tail nerve using a Nicolet VikingQuest EMG machine (NeuroCare Group, Madison, Wis., USA) according to the method described previously (Usuki et al., 2006. J. Neurosci. Res. 83:274-284).

[5] = as restated in Example 12, read-out: IC50 values for the active peptides
[6] = i.p. single dose 100.0 nmol kg^−1, mean (SD)
[7] = i.p. single dose 500.0 nmol kg^−1, mean (SD)
[8] = i.p. single dose 1000.0 nmol kg^−1, mean (SD)
[9] = simulated, 1,000 nmol kg^−1 i.p. at 24-hourly intervals for 7 days

inhibitory activity on GD3 reactivity to mAb R24 (mAb R24; ELISA): little or no inhibitory activity
Substance: PHFDSLLYPCELLGC [PGD3-2, GD3-like peptide]

Substance: GLAPPDYAERFFLIS [PGD3-3]
inhibitory activity on GD3 reactivity to mAb R24 (mAb R24; ELISA): remarkable inhibitory activities
IC50 (mAb R24; [5]): 0.3 µM
effect on serum anti-GD3 / anti-LOSGD3 antibody level [1]: no suppression of either anti-LOSGD3 or anti-GD3 antibodies
rotarod retention time / motor performance (LOSGD3-sensitized rats [2]): did not show any statistically significant differences

Substance: bPGD3-4: biotinylated product of GD3-like peptide PGD3-4 (RHAYRSMAEWGFLYS; also: biotinylated, site not given here)
AUC (zero to infinite time) [3, 6]: 130.0 (43.6) nmol mL^−1 hr
CL (plasma clearance) [3, 6]: 0.82 (0.24) mL hr^−1
Cmax [3, 6]: 70.8 µM
t1/2α (distribution half-life) [3, 6]: 0.48 (0.03) hr
t1/2β (elimination half-life) [3, 6]: 2.45 (0.27) hr
AUC (zero to infinite time) [3, 7]: 589.2 (72.9) nmol mL^−1 hr
CL (plasma clearance) [3, 7]: 0.86 (0.11) mL hr^−1
Cmax [3, 7]: 267 µM
t1/2α (distribution half-life) [3, 7]: 0.42 (0.03) hr
t1/2β (elimination half-life) [3, 7]: 2.45 (0.33) hr
AUC (zero to infinite time) [3, 8]: 1425.7 (78.8) nmol mL^−1 hr
CL (plasma clearance) [3, 8]: 0.71 (0.04) mL hr^−1
Cmax [3, 8]: 667 µM
t1/2α (distribution half-life) [3, 8]: 0.46 (0.03) hr
t1/2β (elimination half-life) [3, 8]: 2.76 (0.42) hr
tmax ([3]; i.p. single dose 100.0 nmol kg^−1, n = 3): 30 min
tmax ([3]; i.p. single dose 500.0 nmol kg^−1, n = 3): 30 min
tmax ([3]; i.p. single dose 1000.0 nmol kg^−1, n = 3): 30 min
death or toxicity after peptide administration ([3]; rats, i.p. single dose of 100, 500 and 1,000 nmol kg^−1): None of the experimental rats died or exhibited toxicity
linearity of pharmacokinetics ([3]; single-dose range 100-1000 nmol kg^−1): linear pharmacokinetics

Substance: SVAVPPPADDPSWRY [PGD3-6]
inhibitory activity on GD3 reactivity to mAb R24 (mAb R24; ELISA): remarkable inhibitory activities
IC50 (mAb R24; [5]): 0.25 µM
effect on serum anti-GD3 / anti-LOSGD3 antibody level [1]: no suppression of either anti-LOSGD3 or anti-GD3 antibodies
rotarod retention time / motor performance (LOSGD3-sensitized rats [2]): did not show any statistically significant differences

inhibitory activity on GD3 reactivity to mAb R24 (mAb R24; ELISA): little or no inhibitory activity
Substance: LAPPRPRSELVFLSV [PGD3-1, GD3-like peptide]

Cmax ([3]; read-out: Cmax, chronic simulation, simulated, 1,000 nmol kg^−1 i.p. at 24-hourly intervals for 7 days): 670 µM
Cav, chronic simulation [3, 9]: 340 µM
Cmin, chronic simulation [3, 9]: 0.33 µM
Substance: RHAYRSMAEWGFLYS [PGD3-4]

Substance: ACTPYAMLPGCK [PGD3-5]
inhibitory activity on GD3 reactivity to mAb R24 (mAb R24; ELISA): remarkable inhibitory activities
IC50 (mAb R24; [5]): 0.1 µM
IC50 (mAb R24; read-out: IC50, competitive inhibition of GD3 reactivity to mAb R24, ELISA, 0.1 μg GD3 per well, as printed in Example 11): 0.1 µM
effect on serum anti-GD3 / anti-LOSGD3 antibody level [1]: effective in suppressing serum anti-GD3 antibody activity
rotarod retention time / motor performance (LOSGD3-sensitized rats [2]): did not show any statistically significant differences
effect on NCV (LOSGD3-sensitized rats [4]): less attenuation of NCV
